# Results as given in patent CN117545770A (HOFFMANN LA ROCHE, dated 2024).
# B1: HLA-G-0090 (antibody, IgG1, V domains shown)
# VH: QVQLQQSGPGLLKPSQTLSLTCAISGDSVSSNRAAWNWIRQSPSRGLEWLGRTYYRSKWYNDYAVSVQGRITLIPDTSKNQFSLRLNSVTPEDTAVYYCASVRAVAPFDYWGQGVLVTVSS
# VL: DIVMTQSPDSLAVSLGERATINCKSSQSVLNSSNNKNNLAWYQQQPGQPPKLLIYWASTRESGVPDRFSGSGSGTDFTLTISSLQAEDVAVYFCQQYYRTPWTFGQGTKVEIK
# modifications: N-glycosylation at the NSS motif of CDR-L1 (LC positions 31-33; Fab glycosylation found by mass spectrometry); N-glycosylation in CDR-L1 (NSS motif, LC 31-33) is on the light chain, not on this chain
# notes: also called 亲代抗体HLA-G-0090
# B2: HLA-G-0090-VL-S33P (antibody, IgG1, V domains shown)
# VH: B1 VH
# VL: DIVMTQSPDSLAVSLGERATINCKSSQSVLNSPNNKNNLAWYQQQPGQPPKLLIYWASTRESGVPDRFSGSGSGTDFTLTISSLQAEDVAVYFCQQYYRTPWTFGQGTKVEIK
# notes: IgG1 format, HEK293F; also called HLA-G-0090-S33P
# B3: HLA-G-0090-VL-S33A (antibody, V domains shown)
# VH: B1 VH
# VL: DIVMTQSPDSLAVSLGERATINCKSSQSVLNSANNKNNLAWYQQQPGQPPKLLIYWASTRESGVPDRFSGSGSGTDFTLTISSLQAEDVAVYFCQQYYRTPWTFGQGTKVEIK
# notes: also called HLA-G-0090-S33A
# B4: HLA-G-0090-VL-S32P (antibody, V domains shown)
# VH: B1 VH
# VL: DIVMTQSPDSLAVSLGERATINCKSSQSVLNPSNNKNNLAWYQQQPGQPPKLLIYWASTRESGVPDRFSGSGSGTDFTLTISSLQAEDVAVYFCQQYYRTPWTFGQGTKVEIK
# notes: also called HLA-G-0090-S32P
# B5: HLA-G-0090-VL-S33D (antibody, IgG1, V domains shown)
# VH: B1 VH
# VL: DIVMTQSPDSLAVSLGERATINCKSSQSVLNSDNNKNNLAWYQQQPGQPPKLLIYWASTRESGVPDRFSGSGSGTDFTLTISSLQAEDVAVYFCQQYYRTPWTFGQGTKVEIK
# notes: IgG1 format, HEK293F; also called HLA-G-0090--S33D
# Target: T1, 重组单链HLA-G单体/人HLA-Gβ2M MHC I类复合物 (SEQ ID NO:39) (human)
# T1 construct: also called wt-HLA-G复合物; wt-HLA-G抗原
# Test: SPR Biacore T200, 25 °C, multi-cycle kinetics; antibody captured by anti-hFc on CM3 chip, HLA-G complex as analyte; 1:1 Langmuir
row,Binder,t1/2 [min]
1,B1,6.5
2,B2,3.13
3,B3,7.76
4,B4,7.34
5,B5,1.73

# Target: T1, 重组单链HLA-G单体/人HLA-Gβ2M MHC I类复合物 (SEQ ID …)
# Test: SPR multi-cycle kinetics
row,Binder,fold decrease of binding affinity against HLA-G-0090 [fold]
1,B2,2
2,B5,5
